{"source": "patent US20180002431A1", "about": "“FAS AND DRs ARE NOVEL MOLECULAR TARGETS OF SENESCENT CELLS” (BioVentures, LLC, priority 2015, published 2018)", "molecules": {"B1": {"name": "TRAIL: recombinant TNF-related apoptosis-inducing ligand, Cat #310-04, Peprotech (protein, UniProt P50591 1-281, looked up)", "Tumor necrosis factor ligand …": "MAMMEVQGGPSLGQTCVLIVIFTVLLQSLCVAVTYVYFTNELKQMQDKYSKSGIACFLKEDDSYWDPNDEESMNSPCWQVKWQLRQLVRKMILRTSEETISTVQEKQQNISPLVRERGPQRVAAHITGTRGRSNTLSSPNSKNEKALGRKINSWESSRSGHSFLSNLHLRNGELVIHEKGFYYIYSQTYFRFQEEIKENTKNDKQMVQYIYKYTSYPDPILLMKSARNSCWSKDAEYGLYSIYQGGIFELKENDRIFVSVTNEHLIDMDHEASFFGAFLVG"}}, "key": {"[1]": {"test_system": "senescent WI-38 cells induced by IR (IR-SC)", "experiment": "Viable cell count, senescent WI-38 cells induced by IR", "type": "cell-based, human", "experimental": "(§1) FIG. 2A, FIG. 2B, FIG. 2C, FIG. 2D, FIG. 2E, FIG. 2F, FIG. 2G, FIG. 2H, FIG. 2I, FIG. 2J, FIG. 2K, FIG. 2L, FIG. 2M and FIG. 2N depict graphs showing that FasAb and Trail selectively kill senescent cells by induction of apoptosis. (FIG. 2A, FIG. 2B, FIG. 2C, FIG. 2D) Non-senescent cells (NC) and senescent WI-38 cells induced by IR (IR-SC) were incubated with different concentrations of FasAb (Clone CH11, Cat #05-201, Millipore, Mass., USA) or Trail (Cat #310-04, Peprotech, N.J., USA) for 3 days to count number of viable cells. The data presented are means±SD of viable cells as a percent of control without FasAb or Trail treatment from 3 independent experiments. **, p<0.01; ***, p<0.001; and ****, p<0.0001, vs. without FasAb or Trail. (FIG. 2E, FIG. 2F) WI-38 NC and IR-SC were incubated with vehicle (Veh), FasAb (10 ng/ml) or Trail (12.5 ng/ml) for 3 days, and apoptosis in these cells was determined by Annexin V-FITC staining and flow cytometry. […] (FIG. 2G, FIG. 2H) NCs and IR-SCs were incubated with vehicle (Veh), FasAb (10 ng/ml) or Trail (12.5 ng/ml) for 3 days after the cells were preincubated with vehicle (Veh) or 10 μM Q-VD-OPh hydrate (QVD) for 2 hours, and apoptosis in these cells was determined by Annexin V-FITC staining and flow cytometry. […]"}, "[2]": {"test_system": "senescent WI-38 cells induced by IR (IR-SC)", "experiment": "Apoptosis by Annexin V-FITC staining and flow cytometry, WI-38 IR-SC", "type": "cell-based, human", "experimental": "as §1, with “The data presented are means±SD of viable cells as a percent of control without FasAb or Trail treatment from 3 independent experiments. **, p<0.01; ***, p<0.001; and ****, p<0.0001, vs. without FasAb or Trail.” left out\nWI-38 NC and IR-SC were incubated with vehicle (Veh), FasAb (10 ng/ml) or TRAIL (12.5 ng/ml) for 3 days, and apoptosis in these cells was determined by Annexin V-FITC staining and flow cytometry. […]"}, "[3]": {"test_system": "senescent IMR90 cells induced by IR (IR-SC)", "experiment": "Viable cell count, senescent IMR90 cells induced by IR", "type": "cell-based", "conditions": "different concentrations, 3 days (FIG. 2K-2N)"}}}
{"molecule": "CC(C)[C@H](NC(=O)c1ccc2ccccc2n1)C(=O)N[C@@H](CC(=O)O)C(=O)COc1c(F)cccc1F", "note": "[QVD, Q-VD-OPh hydrate, reference compound]", "values": [{"measurement": "effect of QVD on the viable cell reduction by FasAb and TRAIL", "setting": "[1]; IR-SC, 10 μM QVD preincubated 2 hours, then FasAb 10 ng/ml or TRAIL 12.5 ng/ml for 3 days (FIG. 2I, 2J)", "result": "blocks the activity observed with FasAb and TRAIL"}, {"measurement": "effect of QVD on apoptosis induced by FasAb and TRAIL", "setting": "[2]; 10 μM QVD preincubated 2 hours, then FasAb 10 ng/ml or TRAIL 12.5 ng/ml for 3 days (FIG. 2G, 2H)", "result": "blocked the ability of FasAb and TRAIL to induce apoptosis"}]}
{"molecule": "B1", "values": [{"measurement": "number of viable cells", "setting": "[1]; WI-38 IR-SC vs NC, different concentrations, 3 days (FIG. 2A-2D)", "result": "significantly reduced the number of viable cells relative to NC"}, {"measurement": "apoptosis (Annexin V-FITC+ cells)", "setting": "[2]; WI-38 IR-SC, FasAb 10 ng/ml or TRAIL 12.5 ng/ml, 3 days, relative to untreated or non-senescent cells (FIG. 2E, 2F)", "result": "significantly increased"}, {"measurement": "number of viable cells (reported as apoptosis induction)", "setting": "[3]", "result": "induced apoptosis"}]}
